Results on 4 substances are retold here after IntAct's records for PubMed 38225382.

For one assay, the target named is tri37_human TRIM37 (UniProt O94972).
In a further assay the target is pex3_human PEX3 (UniProt P56589).
pex3_human PEX3, sequence (P56589 whole entry): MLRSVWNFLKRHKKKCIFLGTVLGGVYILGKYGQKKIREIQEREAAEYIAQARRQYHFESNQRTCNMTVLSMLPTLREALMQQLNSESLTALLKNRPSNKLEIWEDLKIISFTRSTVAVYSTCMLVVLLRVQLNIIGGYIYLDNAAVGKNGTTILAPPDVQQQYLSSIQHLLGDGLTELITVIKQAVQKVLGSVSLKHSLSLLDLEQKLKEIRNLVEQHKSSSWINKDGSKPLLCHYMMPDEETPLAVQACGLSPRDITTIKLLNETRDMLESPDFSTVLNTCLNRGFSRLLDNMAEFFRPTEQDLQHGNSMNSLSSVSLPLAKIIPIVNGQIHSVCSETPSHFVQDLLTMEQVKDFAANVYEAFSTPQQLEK

tri37_human TRIM37, sequence (O94972 whole entry): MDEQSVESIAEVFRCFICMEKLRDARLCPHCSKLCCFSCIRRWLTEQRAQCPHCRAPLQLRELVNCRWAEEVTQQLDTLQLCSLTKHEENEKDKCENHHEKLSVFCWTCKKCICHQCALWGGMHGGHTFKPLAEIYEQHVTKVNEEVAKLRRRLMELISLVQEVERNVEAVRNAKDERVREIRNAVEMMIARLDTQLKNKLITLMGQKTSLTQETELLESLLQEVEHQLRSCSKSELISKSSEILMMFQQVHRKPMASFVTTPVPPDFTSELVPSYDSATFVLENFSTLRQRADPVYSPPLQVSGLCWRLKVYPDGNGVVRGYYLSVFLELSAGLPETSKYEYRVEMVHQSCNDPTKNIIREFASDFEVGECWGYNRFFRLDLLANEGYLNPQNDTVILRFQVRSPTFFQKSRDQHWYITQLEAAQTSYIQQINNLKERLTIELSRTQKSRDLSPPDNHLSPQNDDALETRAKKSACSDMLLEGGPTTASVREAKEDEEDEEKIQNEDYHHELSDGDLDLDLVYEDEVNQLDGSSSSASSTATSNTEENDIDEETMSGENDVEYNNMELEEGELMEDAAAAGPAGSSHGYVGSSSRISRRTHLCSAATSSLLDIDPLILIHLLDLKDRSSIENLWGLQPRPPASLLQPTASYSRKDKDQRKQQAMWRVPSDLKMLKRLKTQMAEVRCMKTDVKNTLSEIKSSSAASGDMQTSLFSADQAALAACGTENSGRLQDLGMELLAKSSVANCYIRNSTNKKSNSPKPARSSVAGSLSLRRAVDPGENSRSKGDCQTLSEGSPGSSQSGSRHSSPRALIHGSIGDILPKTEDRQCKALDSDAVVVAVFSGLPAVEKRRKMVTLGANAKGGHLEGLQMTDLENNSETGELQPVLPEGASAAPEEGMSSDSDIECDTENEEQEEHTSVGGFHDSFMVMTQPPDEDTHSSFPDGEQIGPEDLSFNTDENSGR
Peroxisomal membrane protein PEX16 (Homo sapiens), Q9Y5Y5 K169A, sequence (Q9Y5Y5 whole entry K169A): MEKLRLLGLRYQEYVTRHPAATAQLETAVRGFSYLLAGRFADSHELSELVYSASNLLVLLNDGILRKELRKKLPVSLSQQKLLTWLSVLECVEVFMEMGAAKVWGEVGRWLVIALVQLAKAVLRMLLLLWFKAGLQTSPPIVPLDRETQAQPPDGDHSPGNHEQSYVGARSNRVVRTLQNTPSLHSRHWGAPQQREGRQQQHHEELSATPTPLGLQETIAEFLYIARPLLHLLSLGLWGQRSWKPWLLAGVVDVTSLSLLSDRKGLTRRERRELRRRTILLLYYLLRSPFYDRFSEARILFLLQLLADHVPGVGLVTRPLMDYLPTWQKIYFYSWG
Peroxisomal membrane protein PEX16 (Homo sapiens), Q9Y5Y5 W189G, sequence (Q9Y5Y5 whole entry W189G): as the sequence (Q9Y5Y5 whole entry K169A) above, with A169K, W189G counted along it

In the case of “Bifunctional polynucleotide phosphatase/kinase (Homo sapiens), Q96T60 S114D”, in the assay with tri37_human TRIM37, the “effect of a mutation on the interaction” value is reported as “with no effect”. On to “Peroxisomal membrane protein PEX16 (Homo sapiens), Q9Y5Y5 W189G”, for which, in the assay with pex3_human PEX3, the “effect of a mutation on the interaction” value is recorded as “with no effect”. On the same count and under the same terms, the same measure for “Peroxisomal membrane protein PEX16 (Homo sapiens), Q9Y5Y5 K169A”: “with no effect”.

“Bifunctional polynucleotide phosphatase/kinase (Homo sapiens), Q96T60 P112R”: the “effect of a mutation on the interaction” value with tri37_human TRIM37 is listed as “with no effect”.
